Measured values reported in the RNAGym collection of RNA variant scans (doi:10.1093/molbev/msab373).

B1: Azoarcus group I ribozyme (parent)
chain: GUGCCUUGCGCCGGGAAACCACGCAAGGGAUGGUGUCAAAUUCGGCGAAACCUAAGCGCCCGCCCGGGCGUAUGGCAACGCCGAGCCAAGCUUCGGCGCCUGCGCCGAUGAAGGUGUAGAGACUAGACGGCACCCACCUAAGGCAAACGCUAUGGUGAAGGCAUAGUCCAGGGAGUGGCGAAAGUCACACAAACCGG

Variants of: B1
Assay: reverse-splicing fitness (ratio to wild type); higher = more active; in vitro selection; Mg2+ level not given
Outline: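 An in vitro group I ribozyme library with randomized positions was T7-transcribed and gel-purified. In triplicate, 10 pmol RNA in EPPS pH 7.5 was reacted with 50 pmoles of a 30-nt RNA substrate for 1 h at 37 °C across several added MgCl2 levels (1–48 mM), then stopped with EDTA. Products were reverse transcribed from a substrate-complementary primer, PCR-amplified and sequenced (HiSeq 4000). Fitness is a variant's read proportion after selection over that before, normalised to wild type.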

Variant	reverse-splicing fitness
C82U A111U A120G A145U C150G U176C	0.00777
C82U A111U A120G A145U C150A C169A	0.00884
C82U A111U A120G A145U C150A C169G	0.00728
C82U A111U A120G A145U C150A C169U	0.0062
C82U A111U A120G C150G C169G U176C	0.00449
C82U A111U A120G C150G C169G U176G	0.00425
C82U A111U A120G C150G C169G U176A	0.00605
C82U A111U A120U A145G C150A C169U U176A	0.00439
C82U A111U A120U A145G C150A C169U U176C	0.00345
C82U A111U A120U A145C C150U C169A	0.0022
C82U A111U A120U A145C C150U C169G	0.00276
C82U A111U A120U A145C C150U C169U	0.00288
C82U A111U A120G A145U C150A C169G U176G	0.0044
C82U A111U A120G A145U C150A C169G U176A	0.0132
C82U A111U A120G A145U C150A C169G U176C	0.0136
C82U A111U A120G A145G U176G	0.00453
C82U A111U A120G A145G U176A	0.0127
C82U A111U A120G A145G U176C	0.0197
C82U A111U A120G A145U C169A U176A	0.0113
C82U A111U A120G A145U C169A U176G	0.00391
C82U A111U A120G A145U C169A U176C	0.0101

Variant	reverse-splicing fitness
C82U A111U A120G A145G C169U U176C	0.0159
C82U A111U A120G A145G C169U U176A	0.0196
C82U A111U A120G A145G C169U U176G	0.00458
C82U A111U A120G C150U C169U	0.00882
C82U A111U A120G C150U C169G	0.00909
C82U A111U A120G C150U C169A	0.0102
C82U A111U A120U A145C C150U U176G	0.0026
C82U A111U A120U A145C C150U U176C	0.00469
C82U A111U A120U A145C C150U U176A	0.00399
C82U A111U A120U A145C C150U C169A U176C	0.00253
C82U A111U A120U A145C C150U C169A U176A	0.00217
C82U A111U A120U A145C C150U C169A U176G	0.00178
C82U A111U A120G A145U C150U C169G U176A	0.0119
C82U A111U A120G A145U C150U C169G U176G	0.00463
C82U A111U A120G A145U C150U C169G U176C	0.0134
C82U A111U A120G C169A U176G	0.00417
C82U A111U A120G C169A U176A	0.0178
C82U A111U A120G C169A U176C	0.0221
C82U A111U A120U A145C C150G U176A	0.00287
C82U A111U A120U A145C C150G U176G	0.00213
C82U A111U A120U A145C C150G U176C	0.00408

Variant	reverse-splicing fitness
C82U A111U A120U A145C C169G U176A	0.00238
C82U A111U A120U A145C C169G U176C	0.00221
C82U A111U A120U A145C C169G U176G	0.0016
C82U A111U A120G A145G C150U C169G U176A	0.0129
C82U A111U A120G A145G C150U C169G U176C	0.016
C82U A111U A120G A145G C150U C169G U176G	0.00411
C82U A111U A120G C150U U176G	0.00537
C82U A111U A120G C150U U176A	0.0102
C82U A111U A120G C150U U176C	0.0136
C82U A111U A120G A145C C150A U176A	0.00746
C82U A111U A120G A145C C150A U176G	0.00379
C82U A111U A120G A145C C150A U176C	0.00836
C82U A111U A120G A145G C150G U176C	0.00919
C82U A111U A120G A145G C150G U176G	0.00543
C82U A111U A120G A145G C150G U176A	0.0062
C82U A111U A120G C150A C169U U176C	0.0171
C82U A111U A120G C150A C169U U176A	0.0209
C82U A111U A120G C150A C169U U176G	0.00726
C82U A111U A120G A145U C169A	0.00696
C82U A111U A120G A145U C169U	0.00798
C82U A111U A120G A145U C169G	0.00838

Variant	reverse-splicing fitness
C82U A111U A120G A145U C150G C169A U176C	0.00812
C82U A111U A120G A145U C150G C169A U176A	0.00889
C82U A111U A120G A145U C150G C169A U176G	0.00439
C82U A111U A120G C150A	0.00947
C82U A111U A120G C150U	0.0114
C82U A111U A120G C150G	0.00696
C82U A111U A120G U176G	0.00474
C82U A111U A120G U176A	0.0123
C82U A111U A120G U176C	0.0165
C82U A111U A120G C150A C169G	0.0098
C82U A111U A120G C150A C169U	0.00823
C82U A111U A120G C150A C169A	0.0103
C82U A111U A120G A145G C150A C169A U176G	0.00564
C82U A111U A120G A145G C150A C169A U176A	0.0153
C82U A111U A120G A145G C150A C169A U176C	0.02
C82U A111U A120G A145C C150U	0.0086
C82U A111U A120G A145C C150A	0.0064
C82U A111U A120G A145C C150G	0.00668
C82U A111U A120G A145C C150U C169U U176A	0.0187
C82U A111U A120G A145C C150U C169U U176C	0.00897
C82U A111U A120G A145C C150U C169U U176G	0.00401
